Reference: patent publication US20060246421A1

Target: wild-type NS3 protein of hepatitis C virus (hepatitis C virus) (UniProt Q9WMX2)
Assay: cell-based or functional assay

“D290A NS3 (ATPase-deficient mutant NS3 protein) (from UniProt Q9WMX2 1027-1657)” showed a fold decrease in activity of the HCV-Luc replicon (luciferase) in Huh-7 cells, 48 h of 9 fold.
